From patent US20170226155A1

Legend:
[1] = target: Dipeptidyl amino peptidase type IV (DPP IV); assay: cell-based or functional assay
- [2] = assay: enzyme inhibition (A410); pH 2
- [3] = assay: enzyme inhibition (A410); pH 8
- [4] = assay: enzyme inhibition (A410); pH 12
DP IV [5] = assay: enzyme inhibition (A410); pH 2, 30 minutes
DP IV [6] = assay: enzyme inhibition (A410); pH 2, 10 minutes
DP IV [7] = assay: enzyme inhibition (A410); pH 8, 30 minutes
- [8] = assay: enzyme inhibition (fluorescence); pH 2, -DPIV
- [9] = assay: enzyme inhibition (fluorescence); pH 2, +DPIV
- [10] = assay: enzyme inhibition (fluorescence); pH 7.6, +DPIV
- [11] = assay: enzyme inhibition (fluorescence); pH 7.6, -DPIV
DPP IV [12] = assay: enzyme inhibition (A410); pH 2, 30 minutes
DPP IV [13] = assay: enzyme inhibition (A410); pH 8, 10 minutes
DPP IV [14] = assay: enzyme inhibition (A410); pH 2, 10 minutes
DPP IV [15] = assay: enzyme inhibition (A410); pH 8, 30 minutes

IC50 at ten minutes, pH 2 [1] | IC50 at ten minutes, pH 8 [1] | Substance | also measured
2 µM | 30 µM | ChgAlaProboroPro (peptide) | IC50, pH 2 (Tetrapeptide Prodrugs) [1]: 2 mM; IC50, pH 8 (Tetrapeptide Prodrugs) [1]: 30 mM
17 nM | 25 nM | ChgHypEtgboroPro (peptide) | 
19 nM | 14 nM | ChgPipEtgboroPro (peptide) | 
17 nM | 17 nM | Cyclohexylglycine-Proline-Ala-boroProline (peptide) | IC50, pH 2 (Tetrapeptide Prodrugs) [1]: 19 nM; IC50, pH 8 (Tetrapeptide Prodrugs) [1]: 15 nM
13 nM | 16 nM | ChgThz4EtgboroPro (peptide) | 
190 nM | 360 nM | ChgAlaValboroPro (peptide) | IC50, pH 2 (Tetrapeptide Prodrugs) [1]: 190 nM; IC50, pH 8 (Tetrapeptide Prodrugs) [1]: 360 nM

Further lines, the substance ahead of its results:

Substance | IC50 at ten minutes, pH 2 [1] | IC50 at ten minutes, pH 8 [1] | also measured
Cyclohexylglycine-Proline-Valine-boroProline (peptide) | 70 nM | 70 nM | IC50, pH 2 (Tetrapeptide Prodrugs) [1]: 65 nM; IC50, pH 8 (Tetrapeptide Prodrugs) [1]: 72 nM
ChgAlaEtgboroAla (peptide) | 1.3 µM | 2.5 µM | 
Propyl Gly-boro-Pro |  |  | IC50 (- [2]): 2.5 nM; IC50 (- [3]): 2800 nM; IC50 (- [4]): 200 nM
ChgAib-EthylGly-boroPro |  |  | IC50 (DP IV [5]): 2100 nM; IC50 (DP IV [6]): 13000 nM; IC50 (DP IV [7]): 3200 nM
N-Me-Gly-3,4 dehydroproline-ALA-PRO boronic acid (peptide) | 39 nM | 34 nM | 
AibAlaValboroPro (peptide) | 2 µM |  | 
ChgProtBugboroAla (peptide) | 6.8 µM | 8.4 µM | 
ChgProChgboroPro (peptide) | 14 nM | 14 nM | 
tert-Butyl Gly-boro-Pro |  |  | IC50 (- [2]): 3.4 nM; IC50 (- [3]): 300 nM; IC50 (- [4]): 19 nM
ChgDhpEtgboroPro (peptide) | 15 nM | 17 nM | 
ChgProEtgboroPro (peptide) | 12 nM | 14 nM | 
ChgAzeEtgboroPro (peptide) | 15 nM | 16 nM | 
AspProGlyboroLeu |  |  | IC50 (- [8]): 232 nM; IC50 (- [9]): 108 nM; IC50 (- [10]): 93 nM; IC50 (- [11]): 234 nM
ChgProtBugboroPro (peptide) | 1.5 µM | 8 µM | 
ChgAla-tBugboroPro |  |  | IC50 (DPP IV [12]): > 22000 nM; IC50 (DPP IV [13]): > 22000 nM; IC50 (DPP IV [14]): > 22000 nM; IC50 (DPP IV [15]): > 22000 nM
tBugProAlaboroPro (peptide) | 14 nM | 18 nM | 
ChgAlaEtgboroPro (peptide) | 600 nM | 802 nM | 
ChgProChgboroAla (peptide) | 180 nM | 170 nM | IC50, pH 2 (Tetrapeptide Prodrugs) [1]: 180 nM; IC50, pH 8 (Tetrapeptide Prodrugs) [1]: 170 nM
